Results reported in publication PMC6082870.

B1: lysyl hydroxylase 3 (LH3/PLOD3): T672N (protein)
parent chain: MTSSGPGPRFLLLLPLLLPPAASASDRPRGRDPVNPEKLLVITVATAETEGYLRFLRSAEFFNYTVRTLGLGEEWRGGDVARTVGGGQKVRWLKKEMEKYADREDMIIMFVDSYDVILAGSPTELLKKFVQSGSRLLFSAESFCWPEWGLAEQYPEVGTGKRFLNSGGFIGFATTIHQIVRQWKYKDDDDDQLFYTRLYLDPGLREKLSLNLDHKSRIFQNLNGALDEVVLKFDRNRVRIRNVAYDTLPIVVHGNGPTKLQLNYLGNYVPNGWTPEGGCGFCNQDRRTLPGGQPPPRVFLAVFVEQPTPFLPRFLQRLLLLDYPPDRVTLFLHNNEVFHEPHIADSWPQLQDHFSAVKLVGPEEALSPGEARDMAMDLCRQDPECEFYFSLDADAVLTNLQTLRILIEENRKVIAPMLSRHGKLWSNFWGALSPDEYYARSEDYVELVQRKRVGVWNVPYISQAYVIRGDTLRMELPQRDVFSGSDTDPDMAFCKSFRDKGIFLHLSNQHEFGRLLATSRYDTEHLHPDLWQIFDNPVDWKEQYIHENYSRALEGEGIVEQPCPDVYWFPLLSEQMCDELVAEMEHYGQWSGGRHEDSRLAGGYENVPTVDIHMKQVGYEDQWLQLLRTYVGPMTESLFPGYHTKARAVMNFVVRYRPDEQPSLRPHHDSSTFTLNVALNHKGLDYEGGGCRFLRYDCVISSPRKGWALLHPGRLTHYHEGLPTTWGTRYIMVSFVDP
B2: lysyl hydroxylase 3 (LH3/PLOD3): R714N (protein)
parent chain: B1 parent chain
B3: lysyl hydroxylase 3 (LH3/PLOD3): W148N-L150T (protein)
parent chain: B1 parent chain

Experiments:
[1] = analytical size exclusion chromatography; details: glycan gained; control: wild type
[2] = lysyl hydroxylase activity, Succinate-Glo luminescence; details: glycan gained; control: wild type

Row | Protein | oligomerisation [1] | enzymatic_activity [2]
1 | B1 | decreases | 
2 | B2 | decreases | 
3 | B3 | no change | no change
